Laboratory results published in publication PMC2045701, “Confocal fluorescence resonance energy transfer microscopy study of protein-protein interactions of lens crystallins in living cells” (Molecular Vision, 2007).

Molecular target: GFP-αA-crystallin (UniProt P02489 2-173)
Assay: cell-based or functional assay

Sequence of GFP-αA-crystallin (P02489 2-173): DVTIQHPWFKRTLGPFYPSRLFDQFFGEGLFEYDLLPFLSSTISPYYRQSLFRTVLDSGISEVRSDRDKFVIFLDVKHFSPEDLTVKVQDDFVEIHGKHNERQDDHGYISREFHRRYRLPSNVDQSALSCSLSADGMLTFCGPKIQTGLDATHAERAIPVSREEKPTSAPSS

B1: RED-αB-crystallin (natural protein, UniProt P02511 2-175, looked up)
chain: DIAIHHPWIRRPFFPFHSPSRLFDQFFGEHLLESDLFPTSTSLSPFYLRPPSFLRAPSWFDTGLSEMRLEKDRFSVNLDVKHFSPEELKVKVLGDVIEVHGKHEERQDEHGFISREFHRKYRIPADVDPLTITSSLSSDGVLTVNGPRKQVSGPERTIPITREEKPAVTAAPKK
- percentage of HeLa cells with protein aggregates, cotransfection of GFP-αA- and RED-αB-crystallin against RED-αB-crystallin alone (confocal microscopy): > 4 fold
